{"source": "paper PMC10932818", "about": "(Cancer immunology research, 2024)", "target": "recombinant Fc-tagged extracellular domain of LILRB3 (LILRB3-ECD) (human, UniProt O75022 24-443, glycosylated (production from mammalian NS0 cells))", "sequence (O75022 24-443)": "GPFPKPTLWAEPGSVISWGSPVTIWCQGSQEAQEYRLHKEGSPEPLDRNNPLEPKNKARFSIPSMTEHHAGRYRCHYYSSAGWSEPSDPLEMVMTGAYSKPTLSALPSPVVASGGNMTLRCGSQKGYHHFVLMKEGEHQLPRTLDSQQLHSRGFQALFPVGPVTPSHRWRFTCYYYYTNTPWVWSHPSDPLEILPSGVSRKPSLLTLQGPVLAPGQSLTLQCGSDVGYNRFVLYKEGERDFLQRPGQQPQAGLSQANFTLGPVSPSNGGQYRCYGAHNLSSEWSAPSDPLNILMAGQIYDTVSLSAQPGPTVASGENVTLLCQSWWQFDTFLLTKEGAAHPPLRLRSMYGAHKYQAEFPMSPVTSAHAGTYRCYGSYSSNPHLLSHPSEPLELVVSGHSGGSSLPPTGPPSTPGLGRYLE", "assay": "BLI"}
{"binder": "recombinant human galectin-4 (Galectin-4-His) (natural protein, UniProt P56470 1-323, looked up) MAYVPAPGYQPTYNPTLPYYQPIPGGLNVGMSVYIQGVASEHMKRFFVNFVVGQDPGSDVAFHFNPRFDGWDKVVFNTLQGGKWGSEERKRSMPFKKGAAFELVFIVLAEHYKVVVNGNPFYEYGHRLPLQMVTHLQVDGDLQLQSINFIGGQPLRPQGPPMMPPYPGPGHCHQQLNSLPTMEGPPTFNPPVPYFGRLQGGLTARRTIIIKGYVPPTGKSFAINFKVGSSGDIALHINPRMGNGTVVRNSLLNGSWGSEEKKITHNPFGPGQFFDLSIRCGLDRFKVYANGQHLFDFAHRLSAFQRVDTLEIQGDVTLSYVQI", "values": [{"measurement": "Kd", "result": 44, "unit": "nM"}]}
